Values quoted from earlier work, collected in paper PMC10027511, “Disordered proteins mitigate the temperature dependence of site-specific binding free energies” (The Journal of Biological Chemistry, 2023).

How the values were obtained:
[1] = target: Sos site 4 peptide site 4 peptide (Drosophila melanogaster) (UniProt P26675); assay: 19F NMR lineshape analysis, 45 °C
[2] = target: Sos site 4 peptide site 4 peptide (Drosophila melanogaster) (UniProt P26675); assay: 19F NMR lineshape analysis, 15 °C
[3] = target: Sos site 4 peptide site 4 peptide (Drosophila melanogaster) (UniProt P26675); assay: 19F NMR lineshape analysis, 5 °C
[4] = target: Sos site 4 peptide site 4 peptide (Drosophila melanogaster) (UniProt P26675); assay: 19F NMR lineshape analysis, 25 °C
[5] = target: Sos site 4 peptide site 4 peptide (Drosophila melanogaster) (UniProt P26675); assay: 19F NMR lineshape analysis, 35 °C

Drk N-terminal SH3 domain N-terminal SH3 (from UniProt Q08012)
Kd [1]: 210 µM | Kd [2]: 40 µM | Kd [3]: 20 µM | Kd [4]: 60 µM | Kd [5]: 110 µM
